From article PMC12220430
Read-outs that look alike come from different tables or passages of the source.

T1: rPdxR (Sco1417) (Streptomyces coelicolor A3(2) M145) (UniProt Q9RKX6)
T1 sequence: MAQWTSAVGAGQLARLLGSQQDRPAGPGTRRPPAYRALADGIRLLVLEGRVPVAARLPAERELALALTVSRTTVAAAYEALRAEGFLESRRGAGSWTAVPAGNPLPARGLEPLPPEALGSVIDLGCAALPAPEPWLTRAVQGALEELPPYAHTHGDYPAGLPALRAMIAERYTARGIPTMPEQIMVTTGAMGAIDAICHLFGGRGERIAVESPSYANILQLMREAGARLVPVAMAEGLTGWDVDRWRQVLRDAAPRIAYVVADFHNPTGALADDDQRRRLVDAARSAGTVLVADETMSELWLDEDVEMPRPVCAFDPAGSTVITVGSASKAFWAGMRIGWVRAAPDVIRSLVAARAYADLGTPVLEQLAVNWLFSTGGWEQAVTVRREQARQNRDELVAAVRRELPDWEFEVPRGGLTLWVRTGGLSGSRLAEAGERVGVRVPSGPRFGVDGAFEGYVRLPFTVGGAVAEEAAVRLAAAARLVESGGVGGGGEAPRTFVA

T2: rPdxR (Sco1417) (Streptomyces coelicolor A3(2) M145, UniProt Q9RKX6)
T2 sequence: T1 sequence

B1: ST2a (dsDNA)
DNA 1: CTTCTCATTGGCCCTTGCTAAAACCTGCTC
DNA 2: GAGCAGGTTTTAGCAAGGGCCAATGAGAAG
B2: ST2 (dsDNA)
DNA 1: CTTCTCATTGGCCCTTGCTGTGGCCTGCTC
DNA 2: GAGCAGGCCACAGCAAGGGCCAATGAGAAG
B3: ST2b (dsDNA)
DNA 1: CTTCTCAAAAACCCTTGCTGTGGCCTGCTC
DNA 2: GAGCAGGCCACAGCAAGGGTTTTTGAGAAG
B4: R1 (dsDNA)
DNA 1: TGGGGTGGTGGTAGTGGACTGCCACATGACACCCTGTGGCTTCAGAA
DNA 2: TTCTGAAGCCACAGGGTGTCATGTGGCAGTCCACTACCACCACCCCA
B5: ST (dsDNA)
DNA 1: ACGAAAACGATCCACCGCCTTCTCATTGGCCCTTGCTGTGGCCTGCT
DNA 2: AGCAGGCCACAGCAAGGGCCAATGAGAAGGCGGTGGATCGTTTTCGT
B6: R2 (dsDNA)
DNA 1: TCAACCATGGCCAATTTGGGGAAGGTGGACTGATTT
DNA 2: AAATCAGTCCACCTTCCCCAAATTGGCCATGGTTGA

What was measured:
[1] = target: T1, rPdxR (Sco1417) (Streptomyces coelicolor A3(2) M145); experiment: competition
rPdxR (Sco1417) [2] = target: T2, rPdxR (Sco1417); experiment: EMSA
rPdxR (Sco1417) [3] = target: T2, rPdxR (Sco1417); experiment: EMSA; remark: listed apart in the source

Molecule | binding result (rPdxR (Sco1417) [3]) | further results
TGCTGGACACGGGTACCTCACTGGGGAGAAGGGGGGTTGTGCAGCAACGAGGAAACGTGAGGTGAGCAGGCCACAGCAAGGGCCAATGAGAAGGCGGTGGATCGTTTTCGTCCCCCGGGCGCTACGCCGCCCGCTCCACCAGGGCGGCCGGCGACTCGTCGTCCATCTCGAAGGCCAGCGGGAAGGGCGCGTGCCCGGCGAGGCGGAACCAGCGGACCTTGCGGTGCTCGCGCAGCCTGCGGGCCGCCCCCACCGCGTCGTTGTGGAAGCGGCGG (double strand) [pdxSTp] |  | binding [1]: binds
ACTGCGCCATGGAAATCAGTCCACCTTCCCCAAATTGGCCATGGTTGACTCTTCTTCTGAAGCCACAGGGTGTCATGTGGCAGTCCACTACCACCACCCCAGGGGGCACTTCTTGTCCAGGCAGTCCAGACAGTCGAGGCAATCCGGGCAGTCCGGATGGTCCGGGCGACTCGCGCGGCGGCTGACGCAGCTCTACGGCGGTCTCGTCCTGTACGGAGCGAGTTCGGCGCTGCTGGTCAGGTCCGGGCTCGGCCTCGAACCGTGGAACGTGCTGCACCAG (double strand) [pdxRp] |  | binding [1]: binds
B1 |  | binding result (rPdxR (Sco1417) [2]): no binding
B2 | binds | 
B3 |  | binding result (rPdxR (Sco1417) [2]): no binding
B4 | binds | 
B5 | binds | 
B6 | binds | 
